Laboratory results: patent publication US20230407297A1, “BIOENGINEERED WNT5A THERAPEUTICS FOR ADVANCED CANCERS” (The Regents of the University of California, priority 2020, published 2023)
“Also recorded” adds a separate entry of the source.

Columns and labels:
LuCaP 35CR organoids = experiment: LuCaP 35CR organoids, ex vivo 3D Matrigel; format: cell-based; conditions: single treatment
Text: (§1) FIGS. 9A-9E. Targeting Wnt5A by BERA-Wnt5a siRNA resensitizes LuCaP35CR PDX organoids and tumor growth to enzalutamide treatment. FIG. 9A: Organoids derived from the LuCaP PDX model were established in an ex vivo 3D Matrigel format and treated with bioengineered BERA-Wnt5a siRNA. […] FIG. 9D: Mouse body weight was unaffected by all of the treatments.
(§2) To examine if targeting Wnt5a enhances enzalutamide treatment in resistant prostate cancer, we examined the combinational effects of targeting Wnt5a and enzalutamide in an ex vivo model. Organoids derived from the LuCaP PDX model were established in an ex vivo 3D Matrigel format and treated with bioengineered BERA-Wnt5a siRNA. […] To further determine the anti-tumor effects of Wnt5a inhibition in vivo, we employed a LuCaP 35CR patient derived xenograft model, which was treated with bioengineered BERA-Wnt5a siRNA.

LuCaP 35CR PDX tumors = experiment: LuCaP 35CR patient derived xenograft model, combination with enzalutamide (Example 3); format: in vivo, mouse; conditions: single treatment
Text: as §1, §2

Wnt5A = Wnt5A expression in CWR22rv1 cells; format: cell-based
PS1172 CRC cells = experiment: PS1172 CRC cell number, combination with enzalutamide; format: cell-based; conditions: Wnt5a siRNA + enzalutamide 20 μM, 3 days and 6 days
Procedure: (§3) FIGS. 5A-5B. […] Resistant C4-2B MDVR and PS1172 CRC prostate cancer cells were treated with either enzalutamide (Enza) or Wnt5a siRNA (#1) or the combination (#1+Enza) for three days and 5 days, and the cell numbers were determined.
(§4) Enzalutamide resistant C4-2B MDVR cells and PS1172 CRC cells were treated with either enzalutamide (20 μM) or Wnt5a siRNA (#1) or their combination (enza+#1) for 3 days and 5 days (C4-2B MDVR cells) or 3 days and 6 days (PS1172 CRC cells), and the cell numbers were determined.

C4-2B MDVR cells = experiment: C4-2B MDVR cell number, combination with antiandrogens; format: cell-based
Procedure: as §3
FIGS. 6A-6C. […] Resistant C4-2B MDVR prostate cancer cells were treated with either enzalutamide (Enza, 20 uM) or tRNA-1 (10 nM) or tRNA-2 (10 nM) or the combination (combination) for 3 days and 6 days, and the cell numbers were determined.
FIGS. 7A-7B. Combination of tRNA Wnt5a with antiandrogens in C4-2B MDVR cells. C4-2B MDVR cells were treated with tRNA Wnt5a and antiandrogens such as apalutamide (Apa), darolutamide (Daro), enzalutamide (enza) individually or combination for 3 days and 6 days and the cell number was determined.
as §4
Resistant C4-2B MDVR prostate cancer cells were treated with either enzalutamide (Enza, 20 uM) or tRNA-1 (10 nM) or tRNA-2 (10 nM) or their combination for 3 days and 6 days, and the cell numbers were determined.
Knockdown of Wnt5a by tRNA-Wnt5a siRNA enhances anti-androgen (enzalutamide, apalutamide, darolutamide) treatments (FIG. 7A). Resistant C4-2B MDVR cells were treated with tRNA Wnt5a siRNA-2 and antiandrogens such as apalutamide (Apa), darolutamide (Daro), enzalutamide (enza) individually or their combination for 3 days and 6 days and the cell number was determined.

[1] = test system: enzalutamide resistant CWR22rv1 cells; experiment: CWR22rv1 cell growth, alone and with enzalutamide; format: cell-based; conditions: for improvement of enzalutamide treatment: CWR22rv1 cells, combined with enzalutamide; for cell growth: enzalutamide resistant CWR22rv1 cells, single agent
Text: In addition to spectrometry and gel electrophoresis analyses of target Wnt5A-siRNAs during the purification described above, we conducted HPLC analysis to validate the purity of isolated siRNAs and LC-MS studies to verify RNA sequence and identify possible posttranscriptional modifications.

CNC(=O)c1ccc(N2C(=S)N(c3ccc(C#N)c(C(F)(F)F)c3)C(=O)C2(C)C)cc1F [enzalutamide]
organoid response (LuCaP 35CR organoids): resistant | PSA expression (LuCaP 35CR PDX tumors): without reaching significance | tumor growth (LuCaP 35CR PDX tumors): resistant

Wnt5a siRNA (#1): siRNA specific to Wnt5a, 5′-ACAAACUGGUCCACGAUCUCCGUGC-3′ (expressed or natural sequence)
Wnt5A expression (Wnt5A): downregulated Wnt5A expression | effect on enzalutamide treatment (cell numbers) (PS1172 CRC cells): synergistically enhanced enzalutamide treatment; also recorded: re-sensitize cells to enzalutamide | effect on enzalutamide treatment (cell numbers) (C4-2B MDVR cells; Wnt5a siRNA + enzalutamide 20 μM, 3 days and 5 days): synergistically enhanced enzalutamide treatment; also recorded: re-sensitize cells to enzalutamide

B1: tRNA-siWnt5A-1: bioengineered tRNA-pre-miRNA chimera (human tRNA Leu / pre-miR-34a carrier) carrying Wnt5a siRNA #1, FIG. 8A, SEQ ID NO:20 (nucleic acid)
chain: NNCNCAACANAAAAAACNNNGNGNAANACNNGNAACGCNGAANNCACCAGGANGGCCGAGNGGNNAAGGCGNNGGACNGGCCAGCNGNGAGNGNNNCNNACAAACUGGUCCACGAUCUCCGNGNGAGCAANAGNAAGGAAUGGAGAUCGGGAUCCAGUUUGCUAGAAGNGCNGCACGNNGNNGGCCCGANCCAANGGACANANGNCCGCGNGGGNNCGAACCCCACNCCNGGNACCACNGCAGANCCNNAGCGAAAGCNAAGGANNNNNNNN
modifications: modified_base (1)..(2) t or u; modified_base (4)..(4) t or u; modified_base (10)..(10) t or u; modified_base (18)..(20) t or u; modified_base (22)..(22) t or u; modified_base (24)..(24) t or u; modified_base (27)..(27) t or u; modified_base (30)..(31) t or u; modified_base (33)..(33) t or u; modified_base (39)..(39) t or u; modified_base (43)..(44) t or u; modified_base (53)..(53) t or u; modified
Wnt5A expression (Wnt5A): downregulated Wnt5A expression | improvement of enzalutamide treatment [1]: improved enzalutamide treatment; also recorded: improved enza treatment | cell growth [1]: inhibited cell growth | effect on enzalutamide treatment (cell numbers) (C4-2B MDVR cells; chimera 10 nM + Enza 20 uM, 3 days and 6 days, listed as tRNA-Wnt5a siRNA-1): enhanced enzalutamide; also recorded: synergizes enzalutamide

B2: tRNA-siWnt5A-2: bioengineered tRNA-pre-miRNA chimera (human tRNA Leu / pre-miR-34a carrier) carrying Wnt5a siRNA #2, FIG. 8B, SEQ ID NO:21 (nucleic acid)
chain: NNCNCAACANAAAAAACNNNGNGNAANACNNGNAACGCNGAANNCACCAGGANGGCCGAGNGGNNAAGGCGNNGGACNGGCCAGCNGNGAGNGNNNCNNCUAGGAAGAACUUGGAAGACAUNGNGAGCAANAGNAAGGAAGUGUCUUCCGGUCUUUUCCUACUAGAAGNGCNGCACGNNGNNGGCCCGANCCAANGGACANANGNCCGCGNGGGNNCGAACCCCACNCCNGGNACCACNGCAGANCCNNAGCGAAAGCNAAGGANNNNNNNN
modifications: modified_base (1)..(2) t or u; modified_base (4)..(4) t or u; modified_base (10)..(10) t or u; modified_base (18)..(20) t or u; modified_base (22)..(22) t or u; modified_base (24)..(24) t or u; modified_base (27)..(27) t or u; modified_base (30)..(31) t or u; modified_base (33)..(33) t or u; modified_base (39)..(39) t or u; modified_base (43)..(44) t or u; modified_base (53)..(53) t or u; modified
Wnt5A expression (Wnt5A): downregulated Wnt5A expression | improvement of enzalutamide treatment [1]: improved enzalutamide treatment; also recorded: improved enza treatment | cell growth [1]: inhibited cell growth | effect on enzalutamide treatment (cell numbers) (C4-2B MDVR cells; chimera 10 nM + Enza 20 uM, 3 days and 6 days, listed as tRNA-Wnt5a siRNA-2): enhanced enzalutamide; also recorded: synergizes enzalutamide | effect on apalutamide treatment (cell number) (C4-2B MDVR cells; combination with apalutamide, 3 days and 6 days): enhances | effect on darolutamide treatment (cell number) (C4-2B MDVR cells; combination with darolutamide, 3 days and 6 days): enhances | effect on enzalutamide treatment (cell number) (C4-2B MDVR cells; combination with enzalutamide, 3 days and 6 days): enhances
